In experiment [1] the test system is tracheal smooth muscle (TSM) of mouse tracheal rings. As to the kind of experiment: CCh-evoked force generation in cultured tracheal rings. It is filed as cell-based. To be noted: for Maximal tensions (%), CCh-evoked force generation: PBS-treated rings 100±8.39; for TSM sensitivity to CCh, LogEC50: Mean ± SE, N=6. Here is the method:
Experimental animals were sacrificed by CO2 asphyxiation. Tracheas were surgically excised and cleaned of adherent connective tissue. Each trachea was sectioned into rings 3-4 mm in length and cultured in DMEM containing 1.0 M HEPES, 1.0 M NaOH, 5% of heat-inactivated FBS (Hy-Clone, Logan, Utah), 0.2M glutamine, 1.0 M CaCl2, 2.5 μg/ml fungizone, 5 μg/mL insulin, 100 U/mL penicillin and 100 μg/mL streptomycin) (DMEM-5%) for 24 hours. For in vitro experiments, the tracheal rings were cultured in DMEM in the absence and presence of either 10 or 100 nM recombinant FIZZ1 (Leinco Technologies, USA) for 24 hours.
(§1) Trachea were supported longitudinally by a plexiglas rod with a stainless steel pin into the base of a double-jacketed, glass organ bath filled with 10 mL of Krebs-Henseleit (K-H) solution (37° C.) of the following composition: 118 mM NaCl; 4.7 mM KCl; 1.2 mM KH2PO4; 11.1 mM Dextrose; 1.2 mM MgSO4; 2.8 mM CaCl2; and 25 mM NaHCO3. The solution was maintained at a pH of 7.40-7.45 and continuously gassed with a mixture of 5% CO2 and […] for the duration of each experiment. […] Initial tensions of TSM were set at approximately 0.5 g and maintained for 1 hour. Agonists were given after a steady state of tension had been reached.
[CCh]-response curves at the doses ranging from 3×10^−8 to 10^−5 M were completed in tracheal rings in absence and presence of either FIZZ1 or LPS (0.1 ng/mL). Concentrations of agonist were increased only when force responses to the previous concentration had stabilized. To examine TSM relaxant responses to isoprenaline (ISO), tracheal rings were first contracted by an addition of 1.0 μM CCh (Sigma, USA). Once the contraction had stabilized, ISO (Sigma, USA) was introduced into each bath at increasing concentrations (3×10^−8-10^−5 M). […] In an additional experiment, the effect of FIZZ1 protein on the CCh-mediated force response was verified using 100 nM heat-inactivated FIZZ1 (natural and recombinant FIZZ1 solution heated at 70° C. for 60 min). Their dose-response curves were obtained as above. Fresh drug solutions such as CCh and ISO were made up on the day of the experiment. Doses of the above agents refer to the final bath concentration.
(§2) At the end of each force measurement experiment, tracheas were blotted on a gauze pad and weighted. Results were calculated as milligram of tension per milligram of TSM weight (mg/mg) and expressed as an individual percentage (%) of 10 μM CCh- or 200 μM papaverine-induced tension response in PBS-treated trachea. For the control group, CCh (papaverine)-mediated responses were normalized to the mean value of the maximal responses.

The subject of experiment [2] is TSM of fresh tracheal rings. Briefly: Force response of fresh tracheas from intranasally challenged mice. It is filed as in vivo, mouse. To be noted: intranasal once a day×5 days, 100 nM rFIZZ1 or 0.1 ng/ml LPS; 24 hours after last treatment; PBS 100.00±14.63; N=5. Here is the method: (§3) For some experiments, ex vivo TSM tensions of fresh tracheal rings and BAL cell counts were measured at 24 hours after the last treatment of mice receiving an intranasal dose of either PBS, 0.1 ng/m: LPS or 100 nM rFIZZ1 (once a day×5 days).
as §1, §2

The test system of the next experiment is BAL cells. As to the kind of experiment: Counts of BAL cells in intranasally challenged mice. To be noted: intranasal once a day×5 days, 100 nM rFIZZ1 or 0.1 ng/ml LPS; vs PBS-treated mice. The class given is in vivo, mouse. How it is done: as §3
PBS- and OA-treated mice were sacrificed and their airways lavaged once with 1.0 mL of PBS via tracheal cannulation. An equal volume of BAL from each mouse was collected and centrifuged (1200 rpm, 5 min). Total BAL cells were counted using a hemocytometer. BAL cells ([…]) collected from each sample were applied to a glass slide using a cytospin (800 rpm, 8 min) and then the slide was stained with Hema 3 Stain Set (Fisher Scientific) for the differential count of cells. The relative proportion of different cells counted from 300 cells/slide was factored to the number of total BAL cells collected in each group.

B1: rFIZZ1: recombinant FIZZ1 (Leinco Technologies), mouse FIZZ1 protein, resistin-like molecule-α (protein, listed as Mus musculus)
chain: MKTTTCSLLICISLLQLMVPVNTDETIEIIVENKVKELLANIPANYPSTVTKTLSCTSVKTMNRWASCPAGMTATGCACGFACGSWEIQSGDTCNCLCLLV
modifications: (1)..(101) Murine FIZZ1 polypeptide
Regarding B1, the “Maximal tensions (%), CCh-evoked force generation” value in experiment [1] (10 nM rFIZZ1, cultured 24 hours, n=6) turned out to be 117.21±7.87%; in experiment [1] (100 nM rFIZZ1, cultured 24 hours, n=6), 144.16±15.77%. The “maximal responses (%) of the tracheal rings, CCh-evoked” value in experiment [1] (FIG. 4B, 100 nM heat-inactivated or native rFIZZ1, 0.1 ng/mL LPS, PBS 100±4.82, n=6) was 135.67±9.02%. For the same molecule, the “TSM sensitivity to CCh, LogEC50” value in experiment [1] (trachea treated with FIZZ1 10 nM) is −0.96 ± 0.05 μM; in experiment [1] (trachea treated with FIZZ1 100 nM), −0.99 ± 0.03 μM. The “Maximal tensions (%) of TSM, CCh-evoked, fresh trachea” value in experiment [2] is 147.78±18.57%. In the experiment on BAL cells, the “number of BAL cells” value is recorded as “increase”.

The record behind these values is US20090274696A1, “METHODS FOR TREATING INFLAMMATION” (WYETH, priority 2008, published 2009).
